In patent US20250188166A1 (BRIGHT PEAK THERAPEUTICS, published 2025):
Numbering of substitutions follows the chain as printed. Names and notes keep the numbering of the source. Each block holds one binder with its values, some of them ahead of it.

Legend:
[1] = target: T1, recombinant biotinylated human FcRn (human, UniProt P55899 24-297; P61769 21-119, limits assumed, biotinylated); assay: AlphaLISA competition at pH 6: test antibody titrated against human IgG acceptor beads for biotinylated human FcRn on streptavidin donor beads; normalized signal
T1 construct: Kit reagent; also called human neonatal Fc receptor

[2] = target: T2, His-tagged human IL-18BP (human, UniProt O95998 31-194, limits assumed); assay: AlphaLISA of free IL-18BP: IL-18 analyte titrated in the presence of 5 ng/ml His-tagged human IL-18BP; loss of free IL-18BP signal
T2 construct: also called human IL-18BP-His
T2 sequence (looked up): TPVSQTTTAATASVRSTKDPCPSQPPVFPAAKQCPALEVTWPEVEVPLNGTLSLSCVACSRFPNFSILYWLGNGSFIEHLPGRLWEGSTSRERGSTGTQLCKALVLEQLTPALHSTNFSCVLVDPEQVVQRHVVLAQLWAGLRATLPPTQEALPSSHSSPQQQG

[3] = target: T3, IL-18R on HEK-Blue IL18R reporter cells (UniProt Q13478 19-541; O95256 20-599); assay: cell-based or functional assay
T3 sequence (looked up) 1: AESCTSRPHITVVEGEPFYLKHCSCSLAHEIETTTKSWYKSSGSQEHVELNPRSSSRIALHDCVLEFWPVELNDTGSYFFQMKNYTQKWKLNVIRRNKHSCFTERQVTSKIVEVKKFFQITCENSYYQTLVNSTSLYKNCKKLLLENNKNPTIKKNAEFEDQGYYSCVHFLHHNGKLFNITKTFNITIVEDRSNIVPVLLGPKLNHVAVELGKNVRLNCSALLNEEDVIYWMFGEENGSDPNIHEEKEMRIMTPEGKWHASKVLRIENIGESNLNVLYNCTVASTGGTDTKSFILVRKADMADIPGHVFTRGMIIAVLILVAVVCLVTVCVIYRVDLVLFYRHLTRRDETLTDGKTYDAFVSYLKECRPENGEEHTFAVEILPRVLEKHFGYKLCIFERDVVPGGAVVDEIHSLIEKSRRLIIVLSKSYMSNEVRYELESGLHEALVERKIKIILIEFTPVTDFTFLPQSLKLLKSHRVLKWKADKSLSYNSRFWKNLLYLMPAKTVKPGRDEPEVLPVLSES
T3 sequence (looked up) 2: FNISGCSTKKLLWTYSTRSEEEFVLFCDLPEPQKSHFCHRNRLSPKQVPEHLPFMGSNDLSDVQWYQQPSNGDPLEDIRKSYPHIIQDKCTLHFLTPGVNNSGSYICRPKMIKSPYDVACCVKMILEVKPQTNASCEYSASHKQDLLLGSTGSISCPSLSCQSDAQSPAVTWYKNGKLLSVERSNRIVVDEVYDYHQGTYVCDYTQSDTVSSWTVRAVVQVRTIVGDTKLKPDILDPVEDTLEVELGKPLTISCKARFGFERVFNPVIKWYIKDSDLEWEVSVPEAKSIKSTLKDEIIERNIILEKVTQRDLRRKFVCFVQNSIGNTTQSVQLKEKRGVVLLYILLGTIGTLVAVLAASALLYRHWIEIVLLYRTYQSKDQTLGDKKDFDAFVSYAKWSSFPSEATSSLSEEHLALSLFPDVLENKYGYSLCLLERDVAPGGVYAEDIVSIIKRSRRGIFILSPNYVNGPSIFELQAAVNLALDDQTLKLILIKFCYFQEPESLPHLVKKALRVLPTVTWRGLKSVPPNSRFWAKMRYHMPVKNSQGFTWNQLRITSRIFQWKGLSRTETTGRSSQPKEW

[4] = target: T3, IL-18R on HEK-Blue IL18R reporter cells; assay: cell-based or functional assay; remark: listed apart in the source
[5] = target: T3, IL-18R on HEK-Blue IL18R reporter cells; assay: cell-based or functional assay; remark: listed apart in the source

- IC50 (read off the curve) [1]: ~8000 pM
B1: Pembrolizumab/Keytruda (antibody, human IgG4 S228P, kappa)
heavy: not shown
light: EIVLTQSPATLSLSPGERATLSCRASKGVSTSGYSYLHWYQQKPGQAPRLLIYLASYLESGVPARFSGSGSGTDFTLTISSLEPEDFAVYYCQHSRDLPLTFGGGTKVEIKRTVAAPSVFIFPPSDEQLKSGTASVVCLLNNFYPREAKVQWKVDNALQSGNSQESVTEQDSKDSTYSLSSTLTLSKADYEKHKVYACEVTHQGLSSPVTKSFNRGEC
notes: also called Lambrolizumab; MK-3475

- IC50 (read off the curve) [2]: ~9000 pM
- EC50 (read off the curve) [3]: ~0.05 pM
- EC50, HEK-Blue IL18R SEAP reporter [4]: 0.034 pM
- IL-18R Hek Blue assay EC50 [5]: 0.057 pM
B2: IL-18 polypeptide SEQ ID NO: 30 (E6K, V11I, C38A, K53A, T63A, C76A, C127A) (ligand)
chain: YFGKLKSKLSIIRNLNDQVLFIDQGNRPLFEDMTDSDARDNAPRTIFIISMYADSQPRGMAVAISVKCEKISTLSAENKIISFKEMNPPDNIKDTKSDIIFFQRSVPGHDNKMQFESSSYEGYFLAAEKERDLFKLILKKEDELGDRSIMFTVQNED
notes: also called C086; IL-18 variant

- EC50, HEK-Blue IL18R SEAP reporter [4]: 1.68 pM
B3: IL-18 polypeptide C141 (SEQ ID NO: 71) (ligand)
chain: GYFGKLKSKLSIIRNLNDQVLFIDQGNRPLFEDMTDSDARDNAPRTIFIISMYADSQPRGMAVAISVKCEKISTLSAENKIISFKEMNPPDNIKDTKSDIIFFQRSVPGHDNKMQFESSSYEGYFLAAEKERDLFKLILKKEDELGDRSIMFTVQNED

- EC50, HEK-Blue IL18R SEAP reporter [4]: 14 pM
B4: IL-18 polypeptide C192 (SEQ ID NO: 70) (ligand)
chain: B3 chain with M52G
